These results are taken from the nanobody polyreactivity screen of Harvey et al. (2022).

This series can be described thus: yeast display, Sf9 membrane polyspecificity reagent, FACS + sequencing; frameworks hold sequencing errors. In outline:
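Galactose-induced (36–48 hours) yeast carrying a synthetic nanobody display library were exposed to 10% biotinylated, detergent-solubilized Sf9 membrane reagent at 4 °C for 1 hour. FACS followed streptavidin microbead enrichment, using low and high (top ~1%) gates for expression (anti-HA) and reagent binding (streptavidin). Colony PCR, MiSeq 2 × 250 sequencing and CDR-length filtering followed. Labels for polyreactivity reflect the gate of origin.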
For the sequence “QVQLVESGGGLVQAGGSLRLSCAASGRIFGRNAMGWYRQAPGKERELVASITWTGGSTYYADSVKGRFTISRDNAKNTVYLQMNSLKPEDTAVYYCAAETWYGSSWWDAGEYYYWGQGTQVTVSS”, the “polyreactivity (PSR sort gate)” value was “high polyreactivity”.

Regarding “QVQLVESGGGLVQAGGSLRLSCAASGRIFGRYAKGWYRQAPGKEMELVAAISRSGGSTYYADSVKGRFTISRDNAKNTVYLQMNSLKPEDTAVYDCAAVPGISVGRQPGYDSDYWGQGTQVTVSS”, the “polyreactivity (PSR sort gate)” value was “low polyreactivity”.

As for “QVQLVESGGGLVQAGGSLRLSCAASGRIFGRYAMGWYRQAPGKDRELVAAITYSGGSTYYADSVKGRFTISRDNAKNTVYFQMNSLKPEDTALYYCNAVAYRSRGPHFNYWGQGTQVTVST”, the “polyreactivity (PSR sort gate)” value is “high polyreactivity”.

On to “QVQLVESGGGLVQAGGSLRLSCAASGRIFGRYAMGWYRQAPGKERELVAAISRRGGTTYYADSVKGRFTISRDNAKNTVYLQMNSLKPEDTAVYYCNADTYGYGFDYWGQGTQVTVSS”, for which the “polyreactivity (PSR sort gate)” value is “high polyreactivity”.

Consider “QVQLVESGGGLVQAGGSLRLSCAASGRIFGRYAMGWYRQAPGKERELVAAITSGGSTKYADSVKGRFTISRDNAKNNVDLQMNSLKPEDTAVYYCAVVPYGPVYRSYYYWGQGTQVTVSS”, for which the “polyreactivity (PSR sort gate)” value is “high polyreactivity”.

As to “QVQLVESGGGLVQAGGSLRLSCAASGRIFGRYAMGWYRQAPGKERELVAGISARGGSTYYADSVKGRFTISRDNAKNTVYLQMNSLKPADTAVYYCAAAGYRGGGYWGQRTQVTVSS”, the “polyreactivity (PSR sort gate)” value is given as “high polyreactivity”.

As to “QVQLVESGGGLVQAGGSLRLSCAASGRIFGRYAMGWYRQAPGKERELVARITFRGGNTYYADSVKGRFTISRDNAKNTVYLQMNSLKPEDTAVYYCNASKHNPYGGDYWGQGTQVTVSS”, the “polyreactivity (PSR sort gate)” value is listed as “high polyreactivity”.

“QVQLVESGGGLVQAGGSLRLSCAASGRIFGRYAMGWYRQAPGKERELVASIRSRGGSTYYADSVKGRFTISRDNAKNTVYLQMNSLKPEDTAVYYCAADGTRSYKGYYWGQGTQVTVSS”: the “polyreactivity (PSR sort gate)” value is listed as “high polyreactivity”.

As for “QVQLVESGGGLVQAGGSLRLSCAASGRIFGRYAMGWYRQAPGKERGLVAAITRRGGNTYYADSVKGRFTISRDNAKNTVYLQMNSLKPEDTAVYYCNDDTSTYAIRGQWSWYDYWGQGTQVTVSS”, the “polyreactivity (PSR sort gate)” value is “high polyreactivity”.

With “QVQLVESGGGLVQAGGSLRLSCAASGRIFGRYAMGWYRQATGKERELVAAITSGGRTSYADSVKGRFTISRDNAKNTVYLQMNSLKPEDTAVYYCNVVSRNSIRFDYWGQGTQVTVSS”, the “polyreactivity (PSR sort gate)” value was “high polyreactivity”.

With “QVQLVESGGGLVQAGGSLRLSCAASGRIFGSNAMGWYRQAPAKERELVAAITFRTASTYYADSVKGRFTISRDNAKNTVYLQMNSLKPEDTSVYSCNADKFSAPPLYEYEYWGQGTQVTVSS”, the “polyreactivity (PSR sort gate)” value was “low polyreactivity”.

Consider “QVQLVESGGGLVQAGGSLRLSCAASGRIFGSYAMGWYRQAPGKERELVATISRRGGSTYYADSVKGRFTISRDNAKNTVYLQMNRLKPEDTAVYYCNADYKITKTWSGTIRYYYWGQGTQVTVSS”, for which the “polyreactivity (PSR sort gate)” value is reported as “high polyreactivity”.

Consider “QVQLVESGGGLVQAGGSLRLSCAASGRIFGSYGMGWYRQAPGKEWELVAAITPSGTSTYYADSVKGRFTISRDNAKNTVYLEMNSLKPEDTAVYNCNALFYRRYAFAFGYWRQGTQVTVSS”, for which the “polyreactivity (PSR sort gate)” value is recorded as “high polyreactivity”.

Take “QVQLVESGGGLVQAGGSLRLSCAASGRIFGTNAMGWYRQAPGKERELVAAITWNADDTYYADSVKGRFTISRDNAKNTVYLQMNSLKPEDTAVYYCAADSYEGYYYWGQGTQVTVSS”: the “polyreactivity (PSR sort gate)” value was “low polyreactivity”.

On to “QVQLVESGGGLVQAGGSLRLSCAASGRIFGTNAMGWYRQAPGKERELVADITSGGSTNYADSVKGRFTISRDNAKNTVYLQMNSLKPEDTAVYYCAADVIADLRWYRDEYWGQGTQLTVSS”, for which the “polyreactivity (PSR sort gate)” value is reported as “low polyreactivity”.

As for “QVQLVESGGGLVQAGGSLRLSCAASGRIFGTYAMGWYRQAPGKERELVAAITSGGRTYYADSVKGRFTISRDNAKNTVYLQMNSLKPEDTAVYYCNAVRYYVYDRRFNYWGQGTQVTVSS”, the “polyreactivity (PSR sort gate)” value is reported as “high polyreactivity”.

In the case of “QVQLVESGGGLVQAGGSLRLSCAASGRIFGTYAMGWYRQAPRKERELVAAITQSARSTYYADSVKGRFTISRDNAKNTVYLQMNSLKPEDTAVYYCAAVGYYTKRRFGYWGQGTQVTVSS”, the “polyreactivity (PSR sort gate)” value is reported as “high polyreactivity”.

Turning to “QVQLVESGGGLVQAGGSLRLSCAASGRIFGTYTKGWYRQAPGKERELVAAITTGGITNYADSVKGRFTISRDNAKNTVYLQMKSLKPEDTAVYYCNARWDYGAYEYWGQGTQVTVSS”, the “polyreactivity (PSR sort gate)” value was “low polyreactivity”.

“QVQLVESGGGLVQAGGSLRLSCAASGRIFGVNAMGRYRQAPGKERELVADISSGGSTYYADSVKGRFTISRDNAKNTVYLQMNSLNPEDTAVYSCAVDKYVFVSYSFYFEYDYWGQGTQVTVSS”: the “polyreactivity (PSR sort gate)” value is recorded as “low polyreactivity”.

With “QVQLVESGGGLVQAGGSLRLSCAASGRIFGVNAMGWYRQAPGKERELVAAIDWSDGSTYYADSVKGRFTISRDNAKNTVYLQMNSLKPEDTAVYYCATDYSYGDYYDDEFPSDDFDYWGQGTQVTVSS”, the “polyreactivity (PSR sort gate)” value is recorded as “low polyreactivity”.

On to “QVQLVESGGGLVQAGGSLRLSCAASGRIFGVNAMGWYRQAPGKERELVAAINYSGGRTSYADSVKGRFTISRDNEKNTVYLQMKSLKPEDTAVYYCAKYGLRGGYLYYYWGQGTQVTVSS”, for which the “polyreactivity (PSR sort gate)” value is recorded as “high polyreactivity”.

As for “QVQLVESGGGLVQAGGSLRLSCAASGRIFGVNAMGWYRQAPGKERELVAAITSGGSTNYADSVKGRFTISRDNAKNTVYLQMNSLKPEDTAVYYCAAVNYYWGQGTQVTVSS”, the “polyreactivity (PSR sort gate)” value is reported as “low polyreactivity”.

Turning to “QVQLVESGGGLVQAGGSLRLSCAASGRIFGVNAMGWYRQAPGKERELVADITGSGGSTYYADSVKGRFTISRDNAKNTVYLQMNCLKAEDTAVYYCATRWIGYTSQWDHFEYDYWGQGTQVTVSS”, the “polyreactivity (PSR sort gate)” value is “low polyreactivity”.

In the case of “QVQLVESGGGLVQAGGSLRLSCAASGRIFGVNAMGWYRQAPGKERELVAVISSGGSTYYADSVKGRFTISRDNAKKTVYLQMNSLKPEDTEVYYCDRKSYNFIPGNREYDYWGQGTQVTVSS”, the “polyreactivity (PSR sort gate)” value is listed as “low polyreactivity”.

With “QVQLVESGGGLVQAGGSLRLSCAASGRIFGVNAMGWYRQAPGKVRELVAAIRYSGGSTYYADSVKGRFTISRDYAKNTVYLQMNSLKPEDTAVYYCAKARYTYSWSFGYWGQGTQVTVSS”, the “polyreactivity (PSR sort gate)” value is “low polyreactivity”.

In the case of “QVQLVESGGGLVQAGGSLRLSCAASGRIFGVYALGWYRQAPGKARELVAVINGRGSRTYYADSVKGRFRISRDNAKNTVYLQMNSLKPEDTAVYYCAAGYPASEYDYWGQGTQVTVSS”, the “polyreactivity (PSR sort gate)” value is reported as “high polyreactivity”.

“QVQLVESGGGLVQAGGSLRLSCAASGRIFGVYAMGWYREAPGKEREVVAAITYRGASTYADSVKGRFTISRVNAKKTVYLQMNSLKPEDTAVYYCATYPQYYFRYDYWGQGTQVTVSS”: the “polyreactivity (PSR sort gate)” value was “high polyreactivity”.

Regarding “QVQLVESGGGLVQAGGSLRLSCAASGRIFGVYAMGWYRQAPGKERELFADISWSGSGTYADSVKGRFTISRDNAKNTVYLQMNSLKPEDTAVYYCNVDPAQIHAGYVGYDYWGQGTQVTVSS”, the “polyreactivity (PSR sort gate)” value is “low polyreactivity”.

In the case of “QVQLVESGGGLVQAGGSLRLSCAASGRIFGVYAMGWYRQAPGKERELVAAISFSGGRTYYADSVKGRFTISRDNAKNTVYLQMNSLKAEDTAVYDCAALGPYDWLWAGDYWGQGTQVTVSS”, the “polyreactivity (PSR sort gate)” value is on record as “low polyreactivity”.

Take “QVQLVESGGGLVQAGGSLRLSCAASGRIFGVYAMGWYRQAPGKERELVAAISSTGDRTYYADSVKGRFTISRDNAKNTVYLQMNSLKPEDTAVYYCAARPAYRSSYYWGQGTQVTVSS”: the “polyreactivity (PSR sort gate)” value is reported as “high polyreactivity”.
